In article PMC5774706, “Investigation of the proton relay system operative in human cystosolic aminopeptidase P” (PLoS ONE, 2018):

Legend:
[1] = biological target: the molecule itself; assay: AUC; sedimentation velocity, 40000 rpm, 20°C, 10 mM Tris-HCl, absorbance at 280 nm, c(s) by Sedfit; protein at 1 mg/mL; dimer to monomers
[2] = biological target: the molecule itself; assay: AUC; sedimentation velocity, 40000 rpm, 20°C, 10 mM Tris-HCl, absorbance at 280 nm, c(s) by Sedfit; protein at 0.1 mg/mL; dimer to monomers
[3] = biological target: the molecule itself; assay: AUC; sedimentation velocity, 40000 rpm, 20°C, 10 mM Tris-HCl, absorbance at 280 nm, c(s) by Sedfit; protein at 0.1 mg/mL with 10 mM guanidine hydrochloride; dimer to monomers

Protein | stoichiometry N [1] | dimer:monomer ratio [2] | dimer:monomer ratio [1] | dimer:monomer ratio (printed as monomer:dimer 1:0.67) [2] | dimer:monomer ratio (printed as monomer:dimer 1:1.5) [3]
human cytosolic aminopeptidase P, wild-type (enzyme, UniProt Q9NQW7 1-623, looked up, human cytosolic aminopeptidase P (hcAMPP), encoded by XPNPEP1, residues M1 to H623, cloned into pET-28a (NdeI/HindIII); The His-tag is thrombin cleavable; also called hcAMPP; wild-type hcAMPP; source: E. coli Rosetta (DE3), purified (Ni2+ chelating column)) MPPKVTSELLRQLRQAMRNSEYVTEPIQAYIIPSGDAHQSEYIAPCDCRRAFVSGFDGSAGTAIITEEHAAMWTDGRYFLQAAKQMDSNWTLMKMGLKDTPTQEDWLVSVLPEGSRVGVDPLIIPTDYWKKMAKVLRSAGHHLIPVKENLVDKIWTDRPERPCKPLLTLGLDYTGISWKDKVADLRLKMAERNVMWFVVTALDEIAWLFNLRGSDVEHNPVFFSYAIIGLETIMLFIDGDRIDAPSVKEHLLLDLGLEAEYRIQVHPYKSILSELKALCADLSPREKVWVSDKASYAVSETIPKDHRCCMPYTPICIAKAVKNSAESEGMRRAHIKDAVALCELFNWLEKEVPKGGVTEISAADKAEEFRRQQADFVDLSFPTISSTGPNGAIIHYAPVPETNRTLSLDEVYLIDSGAQYKDGTTDVTRTMHFGTPTAYEKECFTYVLKGHIAVSAAVFPTGTKGHLLDSFARSALWDSGLDYLHGTGHGVGSFLNVHEGPCGISYKTFSDEPLEAGMIVTDEPGYYEDGAFGIRIENVVLVVPVKTKYNFNNRGSLTFEPLTLVPIQTKMIDVDSLTDKECDWLNNYHLTCRDVIGKELQKQGRQEALEWLIRETQPISKQH | 2 | – | – | – | –
human cytosolic aminopeptidase P, Y527F mutant (enzyme, UniProt Q9NQW7 1-623, looked up, human cytosolic aminopeptidase P (hcAMPP), encoded by XPNPEP1, residues M1 to H623, with Y527F made by QuikChange mutagenesis of pET28a-hcAMPP; The His-tag is thrombin cleavable; no cleavage is described; also called Y527F hcAMPP; Tyr527Phe hcAMPP; source: E. coli Rosetta (DE3), purified (Ni2+ chelating column)) MPPKVTSELLRQLRQAMRNSEYVTEPIQAYIIPSGDAHQSEYIAPCDCRRAFVSGFDGSAGTAIITEEHAAMWTDGRYFLQAAKQMDSNWTLMKMGLKDTPTQEDWLVSVLPEGSRVGVDPLIIPTDYWKKMAKVLRSAGHHLIPVKENLVDKIWTDRPERPCKPLLTLGLDYTGISWKDKVADLRLKMAERNVMWFVVTALDEIAWLFNLRGSDVEHNPVFFSYAIIGLETIMLFIDGDRIDAPSVKEHLLLDLGLEAEYRIQVHPYKSILSELKALCADLSPREKVWVSDKASYAVSETIPKDHRCCMPYTPICIAKAVKNSAESEGMRRAHIKDAVALCELFNWLEKEVPKGGVTEISAADKAEEFRRQQADFVDLSFPTISSTGPNGAIIHYAPVPETNRTLSLDEVYLIDSGAQYKDGTTDVTRTMHFGTPTAYEKECFTYVLKGHIAVSAAVFPTGTKGHLLDSFARSALWDSGLDYLHGTGHGVGSFLNVHEGPCGISYKTFSDEPLEAGMIVTDEPGYFEDGAFGIRIENVVLVVPVKTKYNFNNRGSLTFEPLTLVPIQTKMIDVDSLTDKECDWLNNYHLTCRDVIGKELQKQGRQEALEWLIRETQPISKQH | 2 | 1.8 | 3.4 | – | –
human cytosolic aminopeptidase P, R535A mutant (enzyme, UniProt Q9NQW7 1-623, looked up, human cytosolic aminopeptidase P (hcAMPP), encoded by XPNPEP1, residues M1 to H623, with R535A made by QuikChange mutagenesis of pET28a-hcAMPP; The His-tag is thrombin cleavable; no cleavage is described; also called R535A hcAMPP; Arg535Ala hcAMPP; source: E. coli Rosetta (DE3), purified (Ni2+ chelating column)) MPPKVTSELLRQLRQAMRNSEYVTEPIQAYIIPSGDAHQSEYIAPCDCRRAFVSGFDGSAGTAIITEEHAAMWTDGRYFLQAAKQMDSNWTLMKMGLKDTPTQEDWLVSVLPEGSRVGVDPLIIPTDYWKKMAKVLRSAGHHLIPVKENLVDKIWTDRPERPCKPLLTLGLDYTGISWKDKVADLRLKMAERNVMWFVVTALDEIAWLFNLRGSDVEHNPVFFSYAIIGLETIMLFIDGDRIDAPSVKEHLLLDLGLEAEYRIQVHPYKSILSELKALCADLSPREKVWVSDKASYAVSETIPKDHRCCMPYTPICIAKAVKNSAESEGMRRAHIKDAVALCELFNWLEKEVPKGGVTEISAADKAEEFRRQQADFVDLSFPTISSTGPNGAIIHYAPVPETNRTLSLDEVYLIDSGAQYKDGTTDVTRTMHFGTPTAYEKECFTYVLKGHIAVSAAVFPTGTKGHLLDSFARSALWDSGLDYLHGTGHGVGSFLNVHEGPCGISYKTFSDEPLEAGMIVTDEPGYYEDGAFGIAIENVVLVVPVKTKYNFNNRGSLTFEPLTLVPIQTKMIDVDSLTDKECDWLNNYHLTCRDVIGKELQKQGRQEALEWLIRETQPISKQH | 2 | – | – | 0.67 | 1.5
